In patent publication US20260015426A1 (23ANDME, published 2026):

T1: hu-M-IL1RAP construct, positions S21-T367 (extracellular domain of the membrane form of human IL1RAP) (human, UniProt Q9NPH3 21-367)
T1 construct: Biotinylated when captured on the Biacore chip
T1 sequence: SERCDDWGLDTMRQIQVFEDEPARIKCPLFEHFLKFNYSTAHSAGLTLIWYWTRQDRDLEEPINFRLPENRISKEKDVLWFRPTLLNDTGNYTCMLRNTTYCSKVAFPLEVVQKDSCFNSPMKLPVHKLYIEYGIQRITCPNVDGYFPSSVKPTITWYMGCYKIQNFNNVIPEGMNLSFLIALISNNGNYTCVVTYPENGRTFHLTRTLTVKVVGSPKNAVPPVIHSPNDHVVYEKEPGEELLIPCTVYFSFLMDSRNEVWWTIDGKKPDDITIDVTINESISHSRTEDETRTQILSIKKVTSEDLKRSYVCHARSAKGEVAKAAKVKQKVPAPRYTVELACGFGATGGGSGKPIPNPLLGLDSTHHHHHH

T2: human IL1RAP (hu-IL1RAP) on human cells (human, UniProt Q9NPH3 21-570)
T2 sequence: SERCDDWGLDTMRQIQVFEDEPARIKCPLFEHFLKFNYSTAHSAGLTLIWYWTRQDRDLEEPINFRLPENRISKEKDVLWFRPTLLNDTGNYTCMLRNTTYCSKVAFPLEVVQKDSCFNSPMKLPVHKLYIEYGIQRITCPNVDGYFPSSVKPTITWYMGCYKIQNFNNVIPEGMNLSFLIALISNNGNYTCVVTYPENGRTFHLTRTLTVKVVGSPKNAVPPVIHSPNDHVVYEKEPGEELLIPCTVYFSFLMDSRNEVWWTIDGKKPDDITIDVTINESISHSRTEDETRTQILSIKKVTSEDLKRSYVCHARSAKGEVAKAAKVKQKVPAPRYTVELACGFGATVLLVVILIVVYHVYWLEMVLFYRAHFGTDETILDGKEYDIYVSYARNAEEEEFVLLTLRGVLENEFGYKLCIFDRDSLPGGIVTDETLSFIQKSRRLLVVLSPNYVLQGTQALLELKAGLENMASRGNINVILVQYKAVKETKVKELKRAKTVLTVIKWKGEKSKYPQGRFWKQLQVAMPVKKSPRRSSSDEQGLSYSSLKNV


What was measured:
[1] = molecular target: T1, hu-M-IL1RAP construct, positions …; experiment: SPR, Fab analyte, 25 C
Protocol: (§1) Surface plasmon resonance (SPR) analysis was used to determine binding affinity for hu-M-IL1RAP of the purified Fabs containing the selected single, double, and triple mutations in either the VL or VH regions using a BIACORE™ 8K instrument. […] For kinetics measurements, 5 nM biotinylated hu-M-IL1RAP was captured at 10 μL/min to achieve ˜50 response units in the second flow cell (FC2). FC1 was kept as a reference. […] The sensorgrams were recorded and subjected to reference and buffer subtraction before data analysis with the BIACORE® 8K Evaluation Software (version 1.1.1.7442). Association rates (kₒₙ) and dissociation rates (koff) were calculated using a simple one-to-one Langmuir binding model. The equilibrium dissociation constant (KD) was calculated as the ratio of koff/kₒₙ.

[2] = molecular target: T1, hu-M-IL1RAP construct, positions …; experiment: SPR, Fab against parent Fab
[3] = molecular target: T1, hu-M-IL1RAP construct, positions …; experiment: phage display selection of affinity maturation libraries + NGS; enrichment of the mutation R96A (VH)
Protocol: (§2) For the first panning round, plates and phage libraries were blocked in PBS buffer containing 0.05% TWEEN® 20 and 1% BSA for either 1 hour (plates) or 30 minutes (phage libraries). Plates were washed in Wash Buffer (PBS buffer containing 0.05% TWEEN® 20) and incubated with blocked phage libraries for 2 hours with shaking. Non-specifically bound phage was removed by washing vigorously with Wash Buffer. […] Non-specific interactions were inhibited by adding 1/10th v/v 1% BSA.
(§3) For panning rounds three through five, phage libraries were incubated with blocking buffer (PBS buffer with 1% BSA in round 3 and SUPERBLOCK™ PBS buffer (Pierce) and 0.05% TWEEN® 20 in rounds 4 and 5) for 30 minutes and then incubated with decreasing concentrations of biotinylated hu-M-IL1RAP for 1 hour. Hu-M-IL1RAP-bound phage were captured on blocked neutravidin-coated plates, washed extensively with Wash Buffer, and eluted and neutralized in the same manner as in rounds 1 and 2. In the final selection round, 1000× non-biotinylated hu-M-IL1RAP was added as a competitor to increase the selection stringency.
(§4) To extract sequences from affinity maturation libraries using NGS, phagemid double stranded DNA was isolated from E. coli XL-1 cells carrying phagemids from the initial phage library (unsorted libraries) and from the second and third rounds of solution selection (sorted libraries). […]

[4] = molecular target: T1, hu-M-IL1RAP construct, positions …; experiment: phage display selection of affinity maturation libraries + NGS; enrichment of the mutation T94I (VL)
Protocol: as §2, §3, §4

[5] = molecular target: T1, hu-M-IL1RAP construct, positions …; experiment: phage display selection of affinity maturation libraries + NGS; enrichment of the mutation W92I (VL)
Protocol: as §2, §3, §4

[6] = molecular target: T1, hu-M-IL1RAP construct, positions …; experiment: phage display selection of affinity maturation libraries + NGS; enrichment of the mutation A51R (VL)
[7] = molecular target: T1, hu-M-IL1RAP construct, positions …; experiment: phage display selection of affinity maturation libraries + NGS; enrichment of the mutation W92K (VL)
Protocol: as §2, §3, §4

[8] = molecular target: T1, hu-M-IL1RAP construct, positions …; experiment: phage display selection of affinity maturation libraries + NGS; enrichment of the mutation W92L (VL)
[9] = molecular target: T1, hu-M-IL1RAP construct, positions …; experiment: SPR, Fab analyte, 37 C
Protocol: as §1

[10] = molecular target: T2, human IL1RAP (hu-IL1RAP) on human cells; experiment: cell-based or functional assay
[11] = molecular target: T1, hu-M-IL1RAP construct, positions …; experiment: phage display selection of affinity maturation libraries + NGS; enrichment of the mutation A51Y (VL)
Protocol: as §2, §3, §4

[12] = molecular target: T1, hu-M-IL1RAP construct, positions …; experiment: phage display selection of affinity maturation libraries + NGS; enrichment of the mutation T94V (VL)
Protocol: as §2, §3, §4

[13] = molecular target: T1, hu-M-IL1RAP construct, positions …; experiment: phage display selection of affinity maturation libraries + NGS; enrichment of the mutation A51D (VL)
[14] = molecular target: T1, hu-M-IL1RAP construct, positions …; experiment: phage display selection of affinity maturation libraries + NGS; enrichment of the mutation A51L (VL)
Protocol: as §2, §3, §4

Binder | Kd [1] [nM] | koff [1] [s⁻¹] | kon [1] [M⁻¹ s⁻¹] | Fold Improvement in KD @ 25° C. [2] [fold] | further results
H1 Fab (VH R96A) (Fab, V domains shown, Fab with 8xHis tag) VH: EVQLVESGGGLVQPGGSLRLSCAASGFTFSNYAMSWVRQAPGKGLEWVATVTEGGDYNYYLDDVKGRFTISRDNAKNSLYLQMNSLRAEDTAVYYCARDAWPYFFDYWGQGTLVTVSS VL: DIQMTQSPSSLSASVGDRVTITCRASENIYSNLAWYQQKPGKSPKLLVYGAKNLADGVPSRFSGSGSGTDYTLTISSLQPEDFATYYCQHFWTTPRTFGGGTKVEIK | 0.125 | 0.000218 | 1.75e+06 | 2.7 | Enrichment ratio (at the highest selection stringency) [3]: 4.55 ratio
K14 Fab (VL T94I) (Fab, V domains shown, Fab with 8xHis tag) VH: EVQLVESGGGLVQPGGSLRLSCAASGFTFSNYAMSWVRQAPGKGLEWVATVTEGGDYNYYLDDVKGRFTISRDNAKNSLYLQMNSLRAEDTAVYYCARDRWPYFFDYWGQGTLVTVSS VL: DIQMTQSPSSLSASVGDRVTITCRASENIYSNLAWYQQKPGKSPKLLVYGAKNLADGVPSRFSGSGSGTDYTLTISSLQPEDFATYYCQHFWTIPRTFGGGTKVEIK | 0.0913 | 0.000543 | 5.95e+06 | 3.69 | Enrichment ratio (at the highest selection stringency) [4]: 1.74 ratio
K12 Fab (VL W92I) (Fab, V domains shown, Fab with 8xHis tag) VH: EVQLVESGGGLVQPGGSLRLSCAASGFTFSNYAMSWVRQAPGKGLEWVATVTEGGDYNYYLDDVKGRFTISRDNAKNSLYLQMNSLRAEDTAVYYCARDRWPYFFDYWGQGTLVTVSS VL: DIQMTQSPSSLSASVGDRVTITCRASENIYSNLAWYQQKPGKSPKLLVYGAKNLADGVPSRFSGSGSGTDYTLTISSLQPEDFATYYCQHFITTPRTFGGGTKVEIK | 0.0411 | 0.00023 | 5.58e+06 | 8.2 | Enrichment ratio (at the highest selection stringency) [5]: 3.36 ratio
K7 Fab (VL A51R) (Fab, V domains shown, Fab with 8xHis tag) VH: EVQLVESGGGLVQPGGSLRLSCAASGFTFSNYAMSWVRQAPGKGLEWVATVTEGGDYNYYLDDVKGRFTISRDNAKNSLYLQMNSLRAEDTAVYYCARDRWPYFFDYWGQGTLVTVSS VL: DIQMTQSPSSLSASVGDRVTITCRASENIYSNLAWYQQKPGKSPKLLVYGRKNLADGVPSRFSGSGSGTDYTLTISSLQPEDFATYYCQHFWTTPRTFGGGTKVEIK | 0.0119 | 6.26e-05 | 5.25e+06 | 28.3 | Enrichment ratio (at the highest selection stringency) [6]: 2.89 ratio
K3 Fab (VL W92K) (Fab, V domains shown, Fab with 8xHis tag) VH: EVQLVESGGGLVQPGGSLRLSCAASGFTFSNYAMSWVRQAPGKGLEWVATVTEGGDYNYYLDDVKGRFTISRDNAKNSLYLQMNSLRAEDTAVYYCARDRWPYFFDYWGQGTLVTVSS VL: DIQMTQSPSSLSASVGDRVTITCRASENIYSNLAWYQQKPGKSPKLLVYGAKNLADGVPSRFSGSGSGTDYTLTISSLQPEDFATYYCQHFKTTPRTFGGGTKVEIK | 0.0523 | 0.000198 | 3.78e+06 | 6.44 | Enrichment ratio (at the highest selection stringency) [7]: 3.31 ratio
K4 Fab (VL W92L) (Fab, V domains shown, Fab with 8xHis tag) VH: EVQLVESGGGLVQPGGSLRLSCAASGFTFSNYAMSWVRQAPGKGLEWVATVTEGGDYNYYLDDVKGRFTISRDNAKNSLYLQMNSLRAEDTAVYYCARDRWPYFFDYWGQGTLVTVSS VL: DIQMTQSPSSLSASVGDRVTITCRASENIYSNLAWYQQKPGKSPKLLVYGAKNLADGVPSRFSGSGSGTDYTLTISSLQPEDFATYYCQHFLTTPRTFGGGTKVEIK | 0.147 | 0.000751 | 5.12e+06 | 2.29 | Enrichment ratio (at the highest selection stringency) [8]: 0.416 ratio
K10 Fab (VL A51Y) (Fab, V domains shown, Fab with 8xHis tag) VH: EVQLVESGGGLVQPGGSLRLSCAASGFTFSNYAMSWVRQAPGKGLEWVATVTEGGDYNYYLDDVKGRFTISRDNAKNSLYLQMNSLRAEDTAVYYCARDRWPYFFDYWGQGTLVTVSS VL: DIQMTQSPSSLSASVGDRVTITCRASENIYSNLAWYQQKPGKSPKLLVYGYKNLADGVPSRFSGSGSGTDYTLTISSLQPEDFATYYCQHFWTTPRTFGGGTKVEIK | 0.00855 | 5.06e-05 | 5.92e+06 | 39.4 | Kd [9]: 0.0298 nM; koff [9]: 0.000153 s⁻¹; kon [9]: 5.12e+06 M⁻¹ s⁻¹; HEK-Blue, IL-1β, % inhibition at 100 nM (Fab) [10]: 100%; HEK-Blue, IL-1β, IC50 (Fab) [10]: 0.66 nM; HEK-Blue, IL-33, % inhibition at 100 nM (Fab) [10]: 98%; HEK-Blue, IL-33, IC50 (Fab) [10]: 3.26 nM; HEK-Blue, IL-36α, % inhibition at 100 nM (Fab) [10]: 100%; HEK-Blue, IL-36α, IC50 (Fab) [10]: 0.706 nM; Fold Improvement in KD @ 37° C. [2]: 8.99 fold; Enrichment ratio (at the highest selection stringency) [11]: 2.95 ratio
K15 Fab (VL T94V) (Fab, V domains shown, Fab with 8xHis tag) VH: EVQLVESGGGLVQPGGSLRLSCAASGFTFSNYAMSWVRQAPGKGLEWVATVTEGGDYNYYLDDVKGRFTISRDNAKNSLYLQMNSLRAEDTAVYYCARDRWPYFFDYWGQGTLVTVSS VL: DIQMTQSPSSLSASVGDRVTITCRASENIYSNLAWYQQKPGKSPKLLVYGAKNLADGVPSRFSGSGSGTDYTLTISSLQPEDFATYYCQHFWTVPRTFGGGTKVEIK | 0.12 | 0.00068 | 5.67e+06 | 2.81 | Enrichment ratio (at the highest selection stringency) [12]: 0.987 ratio
K9 Fab (VL A51D) (Fab, V domains shown, Fab with 8xHis tag) VH: EVQLVESGGGLVQPGGSLRLSCAASGFTFSNYAMSWVRQAPGKGLEWVATVTEGGDYNYYLDDVKGRFTISRDNAKNSLYLQMNSLRAEDTAVYYCARDRWPYFFDYWGQGTLVTVSS VL: DIQMTQSPSSLSASVGDRVTITCRASENIYSNLAWYQQKPGKSPKLLVYGDKNLADGVPSRFSGSGSGTDYTLTISSLQPEDFATYYCQHFWTTPRTFGGGTKVEIK | 0.021 | 0.000103 | 4.93e+06 | 16.1 | Enrichment ratio (at the highest selection stringency) [13]: 2.84 ratio
K8 Fab (VL A51L) (Fab, V domains shown, Fab with 8xHis tag) VH: EVQLVESGGGLVQPGGSLRLSCAASGFTFSNYAMSWVRQAPGKGLEWVATVTEGGDYNYYLDDVKGRFTISRDNAKNSLYLQMNSLRAEDTAVYYCARDRWPYFFDYWGQGTLVTVSS VL: DIQMTQSPSSLSASVGDRVTITCRASENIYSNLAWYQQKPGKSPKLLVYGLKNLADGVPSRFSGSGSGTDYTLTISSLQPEDFATYYCQHFWTTPRTFGGGTKVEIK | 0.0131 | 6.76e-05 | 5.15e+06 | 25.7 | Enrichment ratio (at the highest selection stringency) [14]: 2.9 ratio
